Results taken from patent US20250361322A1 (ICONIC THERAPEUTICS, published 2025).
Read-outs that look alike come from different tables or passages of the source. Blank lines part the entries; values can stand above or below the binder they belong to.

Legend:
[1] = target: T1, human Tissue Factor on human TF-positive cells (human, UniProt P13726 33-295); experiment: competition flow cytometry on MDA-MB-231 cells: unlabeled antibody titration first, then 20 nM 39A-Alexa488 as the competitor
T1 construct: also called hTF; CD142

[2] = target: T2, full-length mouse TF with a C-terminal FLAG tag on Flp-In-CHO cells (mouse, UniProt P20352 29-294); experiment: flow cytometry on CHO cells expressing mouse TF, MFI at 250 nM antibody
T2 construct: also called CHO-mTF; mouse TF-positive CHO cells

[3] = target: T1, human Tissue Factor on human …; experiment: flow cytometry, titration of unconjugated antibody on HCT-116 cells (human TF), 4-parameter fit of MFI
[4] = target: T1, human Tissue Factor on human …; experiment: flow cytometry, antibody titration on A431 cells (human TF), 4-parameter fit of MFI
[5] = target: T1, human Tissue Factor on human …; experiment: competition flow cytometry on MDA-MB-231 cells: antibody titration first, then 20 nM FVII-Fc-Alexa488 as the blocked ligand
[6] = target: T3, rTF (rat TF) construct on HEK293 cells (rat, UniProt P42533 29-252); experiment: live cell staining, HEK293 cells
T3 construct: not shown: transmembrane/cytoplasmic anchor of the cell-surface construct
T3 sequence (P42533 29-252 limits assumed): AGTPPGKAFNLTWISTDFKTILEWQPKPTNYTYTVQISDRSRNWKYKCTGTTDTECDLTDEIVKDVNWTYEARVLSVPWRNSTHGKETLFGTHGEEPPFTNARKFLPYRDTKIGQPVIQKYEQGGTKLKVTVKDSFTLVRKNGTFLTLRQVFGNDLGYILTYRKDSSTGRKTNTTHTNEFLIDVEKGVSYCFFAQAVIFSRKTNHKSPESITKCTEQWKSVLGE

[7] = target: T4, cynomolgus monkey TF ECD-His6 (cynomolgus monkey (Macaca fascicularis)); experiment: SPR (Biacore), TF-His over coupled antibody
T4 construct: Expi293-derived; also called TF-His; cTF
T4 chain: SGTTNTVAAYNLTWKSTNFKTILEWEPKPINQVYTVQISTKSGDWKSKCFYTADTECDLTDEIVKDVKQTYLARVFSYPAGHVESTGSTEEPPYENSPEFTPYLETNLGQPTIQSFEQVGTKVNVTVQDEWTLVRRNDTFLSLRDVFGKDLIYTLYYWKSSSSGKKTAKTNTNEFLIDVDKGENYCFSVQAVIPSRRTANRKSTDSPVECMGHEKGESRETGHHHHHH

human TF ECD-His6 [8] = target: T5, human TF ECD-His6 (human, UniProt P13726 33-251); experiment: SPR (Biacore), TF-His over coupled antibody
T5 construct: Expi293-derived; Biacore used TF-His; also called TF-His; hTF

[9] = target: T2, full-length mouse TF with a C-terminal …; experiment: flow cytometry, antibody titration on CHO cells expressing mouse TF
[10] = target: T4, cynomolgus monkey TF ECD-His6; experiment: BLI (ForteBio Octet)
human TF ECD-His6 [11] = target: T5, human TF ECD-His6; experiment: BLI (ForteBio Octet)
[12] = target: T1, human Tissue Factor on human …; experiment: flow cytometry, antibody titration on HCT-116 cells (endogenous human TF), 4-parameter fit of MFI
Relipidated TF [13] = target: T6, Relipidated TF (UniProt P13726 33-295, limits assumed); experiment: cell-based or functional assay
[14] = target: T1, human Tissue Factor on human …; experiment: flow cytometry, antibody titration on MDA-MB-231 cells (human TF), 4-parameter fit of MFI
[15] = target: T1, human Tissue Factor on human …; experiment: competition flow cytometry on MDA-MB-231 cells: unlabeled antibody titration first, then 20 nM 39A-Alexa488 as the competitor; remark: listed apart in the source
Relipidated TF [16] = target: T6, Relipidated TF; experiment: cell-based or functional assay; remark: listed apart in the source

IC50 [1]: 1.72 nM
MFI at 250 nM [2]: 2700
EC50 [3]: 0.36 nM
EC50 [4]: 0.89 nM
IC50 (read off the curve) [5]: ~4 nM
binding result [6]: no binding
Kd [7]: 1.83 nM
Kd (human TF ECD-His6 [8]): 0.42 nM
binding result [9]: no binding (tested: 250 nM)
Kd [10]: 4.16 nM
Kd (human TF ECD-His6 [11]): 1.59 nM
EC50 [12]: 0.239 nM
B1: 54E (antibody, human IgG1, V domains shown)
VH: QVQLVQSGAEVKKPGASVKVSCKASGYTFANYYMHWVRQAPGQGLEWMGIINPSGGITVYAQKFQGRVTMTRDTSTSTVYMELSSLRSEDTAVYYCARGGSKVAALAFDIWGQGTMVTVSS
VL: DIQMTQSPSSLSASVGDRVTITCQASQDISNSLNWYQQKPGKAPKLLIYDASNLETGVPSRFSGSRSGTDFTFTISSLQPEDIATYYCQQYNFHPLTFGGGTKVEIK
notes: Human IgG1; also called antibody designated 54E

IC50 [1]: 0.5 nM
MFI at 250 nM [2]: 3700
EC50 [3]: 0.09 nM
% ETP at 10 nM Ab (TGA without antibody pre-incubation) (Relipidated TF [13]): 55%
% Peak IIa at 10 nM Ab (TGA without antibody pre-incubation) (Relipidated TF [13]): 20%
% Peak IIa at 50 nM Ab (TGA without antibody pre-incubation) (Relipidated TF [13]): 7%
% Peak IIa at 100 nM Ab (TGA without antibody pre-incubation) (Relipidated TF [13]): 6%
ETP at 10 nM Ab (TGA without antibody pre-incubation) (Relipidated TF [13]): 1330 nM·min
Lag Time at 10 nM Ab (TGA without antibody pre-incubation) (Relipidated TF [13]): 12.1 min
Lag Time at 50 nM Ab (TGA without antibody pre-incubation) (Relipidated TF [13]): 30.5 min
Lag Time at 100 nM Ab (TGA without antibody pre-incubation) (Relipidated TF [13]): 28.9 min
Peak IIa at 10 nM Ab (TGA without antibody pre-incubation) (Relipidated TF [13]): 82 nM
Peak IIa at 50 nM Ab (TGA without antibody pre-incubation) (Relipidated TF [13]): 30 nM
Peak IIa at 100 nM Ab (TGA without antibody pre-incubation) (Relipidated TF [13]): 26 nM
ttPeak at 10 nM Ab (TGA without antibody pre-incubation) (Relipidated TF [13]): 19.6 min
ttPeak at 50 nM Ab (TGA without antibody pre-incubation) (Relipidated TF [13]): 40 min
ttPeak at 100 nM Ab (TGA without antibody pre-incubation) (Relipidated TF [13]): 40.1 min
EC50 [4]: 0.34 nM
EC50 [14]: 0.06 nM
IC50 [15]: 0.49 nM
IC50 (read off the curve) [5]: ~0.8 nM
binding result [6]: no binding
Kd [7]: 0.08 nM
Kd (human TF ECD-His6 [8]): 0.09 nM
% ETP at 10 nM Ab (TGA with 10 min antibody pre-incubation) (Relipidated TF [16]): 28%
% ETP at 50 nM Ab (TGA with 10 min antibody pre-incubation) (Relipidated TF [16]): 20%
% Peak IIa at 10 nM Ab (TGA with 10 min antibody pre-incubation) (Relipidated TF [16]): 9%
% Peak IIa at 50 nM Ab (TGA with 10 min antibody pre-incubation) (Relipidated TF [16]): 7%
% Peak IIa at 100 nM Ab (TGA with 10 min antibody pre-incubation) (Relipidated TF [16]): 7%
ETP at 10 nM Ab (TGA with 10 min antibody pre-incubation) (Relipidated TF [16]): 482 nM·min
ETP at 50 nM Ab (TGA with 10 min antibody pre-incubation) (Relipidated TF [16]): 346 nM·min
Lag Time at 10 nM Ab (TGA with 10 min antibody pre-incubation) (Relipidated TF [16]): 20.8 min
Lag Time at 50 nM Ab (TGA with 10 min antibody pre-incubation) (Relipidated TF [16]): 28.4 min
Lag Time at 100 nM Ab (TGA with 10 min antibody pre-incubation) (Relipidated TF [16]): 28 min
Peak IIa at 10 nM Ab (TGA with 10 min antibody pre-incubation) (Relipidated TF [16]): 25 nM
Peak IIa at 50 nM Ab (TGA with 10 min antibody pre-incubation) (Relipidated TF [16]): 17 nM
Peak IIa at 100 nM Ab (TGA with 10 min antibody pre-incubation) (Relipidated TF [16]): 17 nM
ttPeak at 10 nM Ab (TGA with 10 min antibody pre-incubation) (Relipidated TF [16]): 30.7 min
ttPeak at 50 nM Ab (TGA with 10 min antibody pre-incubation) (Relipidated TF [16]): 38.9 min
ttPeak at 100 nM Ab (TGA with 10 min antibody pre-incubation) (Relipidated TF [16]): 40.2 min
binding result [9]: no binding (tested: 250 nM)
Kd [10]: 0.57 nM
Kd (human TF ECD-His6 [11]): 0.83 nM
EC50 [12]: 0.039 nM
B2: 39A (antibody, human IgG1, V domains shown)
VH: QVQLVQSGAEVKKPGSSVKVSCKASGGTFSSNAIGWVRQAPGQGLEWMGSIIPIIGFANYAQKFQGRVTITADESTSTAYMELSSLRSEDTAVYYCARDSGYYYGASSFGMDVWGQGTTVTVSS
VL: EIVMTQSPATLSVSPGERATLSCRASQSVSSNLAWYQQKPGQAPRLLIYGASTRATGIPARFSGSGSGTEFTLTISSLQSEDFAVYYCEQYNNLPLTFGGGTKVEIK
notes: Human IgG1; also called antibody designated 39A
